In patent US20230138315A1 (JIANGSU HENGRUI MEDICINE, published 2023) one finds EC50 data, which are given here for three molecules.

Test [1] addresses T1, mouse ANGPTL3(17-455)-His (mouse, UniProt Q9R182 17-455, biotin-labelled in the ELISA and HTRF assays (sites not given)).
T1 construct: also called full-length mouse ANGPTL3
T1 sequence: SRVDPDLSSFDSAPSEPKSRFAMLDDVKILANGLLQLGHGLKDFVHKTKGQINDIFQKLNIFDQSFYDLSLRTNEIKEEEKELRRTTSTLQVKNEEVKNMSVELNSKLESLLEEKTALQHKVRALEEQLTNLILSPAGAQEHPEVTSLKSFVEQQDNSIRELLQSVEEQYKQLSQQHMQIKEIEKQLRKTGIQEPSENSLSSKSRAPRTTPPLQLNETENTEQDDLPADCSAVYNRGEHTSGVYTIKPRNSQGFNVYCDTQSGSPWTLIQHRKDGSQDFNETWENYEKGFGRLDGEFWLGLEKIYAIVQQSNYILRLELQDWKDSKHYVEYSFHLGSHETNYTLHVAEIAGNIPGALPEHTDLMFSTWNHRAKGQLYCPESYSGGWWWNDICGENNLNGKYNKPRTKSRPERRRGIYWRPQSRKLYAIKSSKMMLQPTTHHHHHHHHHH
The test can be described thus: ELISA; biotin-labelled antigen on streptavidin-coated plate. How it is done: An anti-ANGPTL3 antibody inhibited or interfered with at least one activity of an ANGPTL3 protein by binding to the ANGPTL3 protein. The binding activity of the anti-ANGPTL3 antibody to the ANGPTL3 antigen was tested by an ELISA assay. The ANGPTL3 protein (human ANGPTL3(17-170)-mFc) was immobilized on a 96-well microplate by binding to the goat anti-mouse IgG coated on the microplate, and the binding activity of the antibody to the ANGPTL3 was determined according to the intensity of the signal after the antibody was added.
Streptavidin (Sigma, S4762-5MG) was diluted to a concentration of 3 μg/mL with PBS buffer (Shanghai BasalMedia, B320, pH 7.4), added to a 96-well microplate (Corning, CLS3590-100EA) at 50 μL/well, and then incubated in an incubator at 37° C. for 3 h or incubated at 4° C. overnight (16-18 h). After the liquid was discarded, a PBS-diluted 5% skim milk (BD, 232100) blocking solution was added at 250 μL/well, and the mixture was incubated in an incubator at 37° C. for 3 h or incubated at 4° C. overnight (16-18 h) for blocking. […] The mixture was incubated in an incubator at 37° C. for 2 h. After the incubation was finished, the reaction solution in the microplate was discarded. The plate was washed 3 times with PBST, and then a test antibody that was diluted with a sample diluent to different concentrations was added at […]. The mixture was incubated in an incubator at 37° C. for 2 h.
A general note: An ELISA detects its analyte on a solid surface through an enzyme-linked reagent.

Test [2] concerns the target T2, human ANGPTL3(17-170)-mFc (human).
T2 construct: also called fusion protein of the extracellular region of human ANGPTL3 (17-170) and the mouse IgG2aFc fragment
T2 chain: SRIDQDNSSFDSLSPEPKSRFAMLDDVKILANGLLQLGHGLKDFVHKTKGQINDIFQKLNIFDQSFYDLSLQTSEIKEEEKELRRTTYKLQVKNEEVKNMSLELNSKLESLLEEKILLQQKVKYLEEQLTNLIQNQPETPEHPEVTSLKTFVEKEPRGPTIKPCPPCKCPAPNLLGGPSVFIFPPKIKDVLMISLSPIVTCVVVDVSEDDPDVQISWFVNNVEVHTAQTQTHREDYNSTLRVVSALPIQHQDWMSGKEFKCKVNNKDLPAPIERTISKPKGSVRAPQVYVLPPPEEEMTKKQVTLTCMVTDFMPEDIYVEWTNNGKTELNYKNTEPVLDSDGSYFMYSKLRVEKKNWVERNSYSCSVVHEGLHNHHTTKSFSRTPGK
The test can be described thus: ELISA; human ANGPTL3(17-170)-mFc captured by coated goat anti-mouse IgG. How it is done:
The binding activity of the anti-ANGPTL3 antibody to the ANGPTL3 antigen was tested by an ELISA assay. The ANGPTL3 protein (human ANGPTL3(17-170)-mFc) was immobilized on a 96-well microplate by binding to the goat anti-mouse IgG coated on the microplate, and the binding activity of the antibody to the ANGPTL3 was determined according to the intensity of the signal after the antibody was added.
Goat anti-mouse IgG (Sigma, M3534-1ML) was diluted to a concentration of 2 μg/mL with PBS buffer (Shanghai BasalMedia, B320, pH 7.4), added to a 96-well microplate (Corning, CLS3590-100EA) at 50 μL/well, and then incubated in an incubator at 37° C. for 3 h or incubated at 4° C. overnight (16-18 h). After the liquid was discarded, a PBS-diluted 5% skim milk (BD, 232100) blocking solution was added at 250 μL/well, and the mixture was incubated in an incubator at 37° C. for 3 h or incubated at 4° C. overnight (16-18 h) for blocking. After the blocking was finished, the blocking solution was discarded and the plate was washed 3 times with PBST buffer (pH 7.4 PBS containing 0.05% Tween-20), and then human ANGPTL3(17-170)-mFc (with sequence set forth in SEQ ID NO: 3) diluted to 0.5 μg/mL with a sample diluent (pH 7.4 PBS containing 1% BSA) was added at 50 μL/well. The mixture was incubated in an incubator at 37° C. for 2 h. After the incubation was finished, the reaction solution in the microplate was discarded. The plate was washed 3 times with PBST, and then a test antibody that was diluted with a sample diluent to different concentrations was added at 50 μL/well. The mixture was incubated in an incubator at 37° C. for 2 h. After the incubation was finished, the plate was washed 3 times with PBST, and a goat anti-human secondary antibody (Jackson Immuno Research, 109-035-003) that was diluted with the sample diluent was added at 50 μL/well. The mixture was incubated at 37° C. for 1 h.

B1: P8G (antibody, human IgG4 S228P, kappa, V domains shown)
VH: QVQLVQSGAEVKKPGASVKVSCKASGYTFTSYDINWVRQAPGQGLEWVGLINPRDDSTSYAQKFQGRVTMTRDTSTSTMYMELSSLRSEDTAVYFCARDLGSIREVLYYGMDVWGQGTTVTVSS
VL: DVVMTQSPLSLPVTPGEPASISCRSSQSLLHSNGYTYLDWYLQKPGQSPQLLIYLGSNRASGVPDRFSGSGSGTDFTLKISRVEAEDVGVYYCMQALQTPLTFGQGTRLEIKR
notes: also called anti-ANGPTL3 antibody P8G; P8 (variable regions)
As for B1, the 50% effective concentration (EC50) (commonly the concentration needed to bring the measured effect to its halfway point) in test [1] is 1730 pM; in test [2] it was 361 pM.

B2: P8BG (antibody, human IgG4 S228P, kappa, V domains shown)
VH: QVQLVQSGAEVKKPGASVKVSCKASGYTFTSYDINWVRQAPGQGLEWVGLINPREDSTSYAQKFQGRVTMTRDTSTSTMYMELSSLRSEDTAVYFCARDLGSIREVLYYGMDVWGQGTTVTVSS
VL: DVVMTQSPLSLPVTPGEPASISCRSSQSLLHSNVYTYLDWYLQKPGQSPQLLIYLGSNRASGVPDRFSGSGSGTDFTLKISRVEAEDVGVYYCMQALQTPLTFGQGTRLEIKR
notes: also called anti-ANGPTL3 antibody P8BG; P8B (variable regions)
For the molecule B2, the results for the EC50 in test [1] and in test [2] were 105 pM and 172 pM, respectively.

B3: P3G (antibody, human IgG4 S228P, kappa, V domains shown)
VH: QVQLVQSGAEVKKPGASVKVSCKSSGYTFTDYYLHWLRQAPGQGPEWMGWISPNSGGTSYAQKFQGRVTMTRDTSISTAYMELSSLRSDDTAVYYCARDIATLGNFFTYGMDVWGQGTTVTVSS
VL: DIQLTQSPSSLSASVGDRVTITCRASQGIRNDLGWYQQKPGKAPKLLIYAASSLQSGVPSRFSGSGSGTDFTLTISSLQPEDFATYYCQQSYSSWTFGQGTKVEIKR
notes: also called anti-ANGPTL3 antibody P3G; P3 (variable regions)
For B3, the EC50 in test [1] was 1630 pM; in test [2] it was 2480 pM.
